Test results taken from the DeepSol protein solubility set.

assay: soluble on expression in E. coli; label from the status in PepcDB or PDB records

Sequence	soluble on expression in E. coli
MSLSSERLIYLPLGGAGEIGMNAYVYGYGKPGKERLIVVDLGVAFPDMDTSPGVDLIIPDIAWLEERRDQIEAIFITHAHEDHIGAVAHTYDRLRAPIYTRKFTANIAKRKMDEYGHPDDAVTTVAPWPQQTTVGPFKVGFLPMSHSIPESSSLVIDVAGDRLIHSGDFKIDMTPGVGEPYDPELWADVSKDGVKALICDSTNVFSQHAGRSEATVGPEIEKLLGTAQGMVVATTFASNVARVKTLADAGERAGRSVVLLGRAMKRMVEASLETGVMKDFPPVVSPEEARGIPRENLMLLVTGSQGERRAASAQLARGKYMGLEMKEGDMFLFSSKTIPGNERGVIKVINAFSEMGVDIVDDSSGLYHVSGHANRPDLETLHDVVKPQILIPMHGEHRHLREHTKIANAKGMKGVLAVNGMMIDLSGNEPKVVEYVDSGRTYLDGSTQIGAMDGVVRDRIRMALNGHVTVTVILDENDEALGDPWVDAMGLPEQGRSKTSLVDVLEADLAQFLGRANAKTLRDDDKLHDGLKRTVRQSANDEIGKKPEVTIVVSRLSEGHHHHHH	soluble
MSLSSFEGKVAVITGAGSGIGRALALNLSEKRAKLALSDVDTDGLAKTVRLAQALGAQVKSDRLDVAEREAVLAHADAVVAHFGTVHQVYNNAGIAYNGNVDKSEFKDIERIIDVDFWGVVNGTKAFLPHVIASGDGHIVNISSLFGLIAVPGQSAYNAAKFAVRGFTEALRQEMLVARHPVKVTCVHPGGIKTAVARNATVADGEDQQTFAEFFDRRLALHSPEMAAKTIVNGVAKGQARVVVGLEAKAVDVLARIMGSSYQREGHHHHHH	not soluble
MSLSSFPDVPGWVKPSVDYLINKNVLSGMPDGTFSPNLEIDRGSSAKVMAKILELPIDQSAKPSFDDSKSHWAAPYIAAIEKAGVIKGDGKGNFNPTGKLTRGAMASMLVHAYKLQEKVTGNPPTVFNDLKDHWSEKYVNILVELGISNGYGDDNWKPDQTITRAETVSLVARTDEGHHHHHH	not soluble
MSLSTIEDVAKLAGLSRTTVSRVINNHPYVSDEKKKRVQLAMKHLGFVPNSAARRLRKQKTETIAVLVPRITNPFFSRFIEAIEIAASEHKYKLIICQTRYLPEKEMEYLQLLSTKQVDGIILCSLENQWEDVEPYLQHGPIVLCNEYIEEANVPTVKFDHAQGAYIAAKHVLEQGYRNLIFCRGNETKVVSQQRKMGFLRAITEKSRQVEAIDFLENAFSWEDGKRIFHEVLKDKKNPTAILAGGDEVAAGIISEAKRHDWSIPDDLAVIGFDNQILSQITEPGITTIEQPIDEMARKVVDLMMDKIHTKNYRKKELYEFELELLVKGSTMKDTMLLAEGHHHHHH	not soluble
MSLSTPAVQALSHLVRDVTMKSIVLSAFGTMPIVDERPLPVAGPQEILIRMTHASLNPIDRRIAEGFFKDRFEHRFPLTLGIDGAGVVESIGEQVSDFEVGDSVFGRFLHSYVGNGSFSEYVAISADATLLHTPLGVPPALAAALPTAATTALQAVESLGLPPGSVVLIMGATGGVGTFAVQLARAKGYQVLASASTEAAPWLAQLGVEHVFDRTQNVPERLSTGWPAGINGLIDLVNPAPAFAELVSCIAPGGTALSSIWSATADVAAARGVRAVNLEMLPNREDLRTLARQVLSGSLRVVIDKHISLEAVPAVMSQRQAGGARGKTVIDIAEGHHHHHH	soluble
MSLSTRSRIREERKDPLSALAREYGGSKRNALLKWCQKKTEGYQNIDITNFSSSWNDGLAFCALLHTYLPAHIPYQELNSQDKKRNFTLAFQAAESVGIKSTLDINEMARTERPDWQNVMLYVTAIYKYFETEGHHHHHH	soluble
MSLTALSSVDFCLPEHITPEIFLRDYWQKKPLVIRNGLPEIVGQFEPQDIIELAQNEDVTARLVKTFSDDDWKVFFSPLSEKDFQKLPEKWSVLVQNLEQWSPELGQLWNKFGFIPQWQRDDIMVSYAPKGGSVGKHYDEYDVFLVQGYGHRRWQVGKWCDASTEFKPNQSIRIFDDMGELVIDEVMNPGDILYIPARMAHYGVAEDDCLTFSFGLRYPNLSNLIDGISKGFCHQDPDLNLSEFDLPLRLSQSEQRTGKLADENIQAMKQLLLDKLAHSEAFDTLFKQAVASAVSSRRYELLVSDEMCDPDEVRSILEEDGAFLSQDNNCKLLYTENPLRIYANGEWLDELNIIESEVLKRLSDGESLDWAFLSDLANKTEDPETSMDLLLDSICNWVDDGWALIEEGGSHHHHHH	soluble
MSLTDAILYELHIRDATIHPGSGVSKKGTYKGLMEEGTTGRNGTLTGLSHIKDLGVTHVELLPLYCFGGVDEANPSSAYNWGYNPLYYNAPTGYYATNPSDPYNRIVECKQLIETFHEHGIRVIIDVVYNHVYERELSSFEKLVPGYYFRHGENGMPSNGTGVGNDIASERKMMRKFIVESILYWLTEYNVDGFRFDLMGILDVDTINIIEKEVRNIKRDALLLGEGWDLQTPLPLEEKATLNNAKKMPHIAQFNDQFRDGIKGSTFHINKRGFAFGGYVDCNHLQYIASGSLLSMKETGLFLEPVQSINYVECHDNMTMWDKLMRSNEESEEILKKRHLLATAMVILSQGIPFLHAGQEFYRTKQGNENSYNANDEINQLDWDRKEKEIETVNYIKGLIAIRKEHGAFRLQNADLIKKHMTFLQTSPEVLAYHLEHVESFGPWKEIVVLFNSSLEAKTVQLPKEETWHVLVNEKQAKIEPISSFRGKELRLAPISTYILTIMEGHHHHHH	not soluble
MSLTDDLKVCNQTGVGEAINQIYKDDGRRCEGYESRDKKCLCISDNNTSLYAILSGHNGVTVAENALQEMAAELLLGQLNVCNTDEAVKELIRQSFMSVEKGYFDSINPHVATKTAIQLHLSADGMNQYEISQQFENVLQKLDSLNNALSVGSSAVLALIHRSHLYLGNIGNCRALLCKTDEHDTLTVTQLSVDHNLLNAEEAARLFRLGLMAQNFEGVPLYSTRCIGNYLGKAGYKDCNFLSSATAEPVIFEPEIVGGIQITPACRFLVLMSSGLCRALHEIFPGDASTGNRELVRMISEEFQNQSTLGGVAQSVVHRIVQAHHDTYMQLVEEHRSVTFNSRDDVTLLIRNFNYAEGHHHHHH	not soluble
MSLTDVMFKSQIANQLKNLRKSRGLSLDATAQLTGVSKAMLGQIERGESSPTIATLWKIASGLEASFSAFFANDPQLLSSERSFPDDLNMKIHTLFPYAADTGLEIFEITLLDHHQQMSSPHALGVIEYIHVLEGIMKVFFDEQWHELQQGEHIRFFSDQPHGYAAVTEKAVFQNIVAYPRREGGSHHHHHH	soluble
MSLTEAPRVRLAEAEVFERPVEFRFPFRFGSARVATAPQAFVRVRVEDARGRSAIGWSAEMMMPKWFDKNPGLSPEDNVEQLRASLRLAIEGLTSLQAQTPFGLHAAAEGDHHRAAAGHGLPALVASYGLALLDRAILDALCRMTGASAAGAVRANLPGITGATAPDLEGFDLARFLSRLEPGPRLAVRHTIGLADALTAADLAPGQRLEDGLPQTLEEVIAAYGHRYFKIKVSGRPAEDTRRLLAIAAVLDQRVDAYRVTLDGNEQFENADAVADLLDRIAEEPRLEKLRASALFFEQPIVRAEALSRPVTEVAGRMPLEIDESDGDIGAFLRARALGYAGISSKSCKGFYRALVNRARVEMWNAEAGAARSFMSAEDLTTQSGLALQQDLVLAALVGAGHVERNGHHYVDGMAGAPAAEQAAYLAHHGDLYESGSGRARLAIRGGEITFSTVLRSVGLGSSVEPDWVAMVSEGHHHHHH	not soluble
MSLTETAIENSVTVFHIESDEIKGRIIGREGRNIRALEAATGVEIVVDDTPEAIVLSAFDPVRREIARLALHQLVTDGRIHPARIEEVVAKVRKQVEEEIIETGKRTTIDLGIHGLHPELIRIIGKMKYRSSYGQNLLQHARETANLCAVMASELGLNPKKAKRAGLLHDIGKVPDEEPELPHALLGMKLAEKFKEKPDICNAIGAHHDEIEMTSLLAPIVQVCDAISGARPGARREIVEAYIKRLNDLEQLAMSYPGVTKTYAIQAGRELRVIVGADKIDDKQTENLSGEIAKKIQDEMTYPGQVKITVIRETRAVSFAKEGHHHHHH	soluble
